This sample holds only a part of the variants without activity.
B1: TPR 5TU (parent)
chain: GGAUCUUCUCGAUCUAACAAAAAAGACAAAUCUGCCACAAAGCUUGAGAGCAUCUUCGGAUGCAGAGGCGGCAGCCUUCGGUGGCGCGAUAGCGCCAACGUUCUCAACUAUGACACGCAAAACGCGUGCUCCGUUGAAUGGAGUUUAUCAUG

Variants of: B1
Test: polymerase ribozyme fitness, log enrichment relative to wild type (log ratio); higher = more active; in vitro selection for triplet polymerase activity
Procedure, shortened: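 Both subunits of a heterodimeric triplet polymerase ribozyme were given their own mutant library, built by PCR and transcribed. Each library was annealed with a biotinylated primer, the partner subunit and triplets, incubated frozen at −7 °C, and its extended constructs gel-excised, captured on streptavidin beads and amplified by RT-PCR, all in one round done in triplicate. Fitness is the logarithm of genotype enrichment relative to wild-type enrichment, with replicates averaged by inverse-variance weighting. That logarithm is base 2, and Illumina-sequenced genotypes needed ≥10 input reads and ≥1 read per output.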

Row | Variant | polymerase ribozyme fitness (log ratio)
1 | GGAUCUUCUCGAUCUAACAAAAAAGACAAAUCUGCCACAAAGCUUGCGAGCAUCUUAGGAUGCAGAGGCGGCAGCCUUCGGUGACGCGAUAGCGCCAACGCUCUCAACUAUGACACGCAAAACGCGUGCUCCGUUGAAUGGAGUUUAUCAUG | -0.765
2 | GGAUCUUCUCGAUCUAACAAAAAAGACAAAUCUGCCACAAAGCUUUAGAGCAUCUUCGGAUGCAGAGGCGGCAGCCUUCGGUAGCGCGAUAGCGCCAACGUUCUCAACUAUGACACGCAAAACGCGUGCUCCGUUGAAUGGACUUUAUCAUG | -4.16
3 | GGAUCUUCUCGAUCUAACAAAAAAGACAAAUCUGCCACAAAGCUUGCGAGGAUCUUCGGAUGCAGAGGCGGCAGCCUUCGGUGGCGUGUUAGCGCCAACGUUCUCAGCUAUGACACGCAAAACGCGUGCUCCGUUGAAUGGAGUUUAUCAUG | ≤ -4.2
4 | GGAUCUUCUCGAUCUAACAAAAAAGACAAAUCUGCCACAAAGCUUGCGAGCAUCUUCGGAUGCAGAGGCGGCAGCCUUCGGUGGCGCGAUAGCGCCAACGUUGUCAACUAUGACACGCAAAACGCGUGCUCCGUGGAAUGGAGUUUAUCAUG | ≤ -4.2
5 | GGAUCUUCUCGAUCUAACAAAAAAGACAAAUCUGCCACAAAGCUUGCGAGCAUCUUCGGAUGCAGAGGCGGGAGCCUUCGGUUGCGCGAUAGCGCCAACGUUCUCAACUAUGACACGCAAAACGCGUGCUCCGUUGAAUGGGGUUUAUCAUG | ≤ -4.2
6 | GGAUCUUCUCGAUCUAACAAAAAAGACAAAUCUGCCACAAAGCUUGCGAGCAUCUUCGGAUGCAGAGGCGGCAGCCUUCGGUGGCGCGAUAGCGCCAACGUUCUAAACUAUGACACGCAAAACGCGUGCUCCGUUGAAUGGAGUUUAUCAUG | -1.02
7 | GGAUCUUCUCGAUCUAACAAAAAAGACAAAUCUGCCACAAAGCUUGCGAGCAUCUUCGGAUGCAGAGGCGGCAGGCAUCGGUGGCGCAAUAGCGCCAACGUUCUCUACUAUGACACGCAAAACGCGUGCUCCGUUGAAUGGAGUUUAUCAUG | ≤ -4.2
8 | GGAUCUUCUCGAUCUAACAAAAAAGACAAAUCUGCCACAAAGCUUGCGAACAGCUUCGGAUGCAGAGGGGGCAGCCAUCGGUGGAGCGAUAGCGCCAACGUUGUCAACUAUGGCACGCAAAACGCGUGCUCCGUUCAAUGGAGUUUAUCAUG | ≤ -4.2
9 | GGAUCUUCUCGAUCUAACAAAAAAGACAAAUCUGCCACAAAGCUUGCGAGCAUCUUCGGAUGCAGAGGCGGCAGCCUUCGGUGGCGCGAUAGCGCCAACGUUCUCAACUAUGACACGCAAAACGCGUGCUCCGUUGAAUGGAGUUUAUCUUG | -0.247
10 | GGAUCUUCUCGAUCUAACAAAAAAGACAAAUCUGCCACAAAGCUUGCGAGCAUCUUCGGAUGCAGAGGAGGCAGCCUUCGGUGGCGCGGUAGCGCCAACGUUCUCAACUAUGACACGCAAAACACGUGCUCCGUUGAAUGGAGUUUAUCAUG | -3.28
11 | GGAUCUUCUCGAUCUAACAAAAAAGACAAAUCUGCCACAAAGCUUGCGAGCAUCUUAGGAUGCAGAGGCGGCAGCCUUCGGUGGCGCGAUAGCGCCAACGUUCUAAACUAUGACACGCAAAACGCAUGCUCCGUUGAAUGGAGUUUAUCAUG | -3.51
12 | GGAUCUUCUCGAUCUAACAAAAAAGACAAAUCUGCCACAAAGCUUGCGAGCAUCUUGCGAUGCAGAGGCGGCAGCCUUCGGUGGCGCGAUAGCGCCAACGUUCUCAACUAUGACACGCAAAACGCGUGCUCCGUUGAAUGGAGUUUAUCAUG | 0.275
13 | GGAUCUUCUCGAUCUAACAAAAAAGACAAAUCUGCCACAAAGCUUGCGAGUAAAUUCGGAUGCAGAGGCGGCAGCCUUCGGUGGCGCGAUAGCGCCAACGUUCUCAACUAUGACACGCAAAACGCGUGCUCCGUUGAAUGUAGUUUAUCAUG | -4.13
14 | GGAUCUUCUCGAUCUAACAAAAAAGACAAAUCUGCCACAAAGCUUGCGAGCAUCUUCGAAUCCAGACCCGGCAGCCUUCGGUGGCGCGAUAGCGCCAAUGUUCUCAUCUAUGAAACGCAAGACGCGUGCUCCGUUGAAUGGAGUUUAUCAUG | ≤ -4.2
15 | GGAUCUUCUCGAUCUAACAAAAAAGACAAAUCUGCCACAAAGCUUGCGAGCAUCUUUGGAUGCAGAGGCGGCAGCCUUAGGUGGCGCGAUAGCACCAACGUUCUCAACUAUGACACGCAAAACGCGUGCUCCGUUGAAUGGAGUUUAUCAGG | ≤ -4.2
16 | GGAUCUUCUCGAUCUAACAAAAAAGACAAAUCUGCCACAAAGCUUGCGAGAAUUUUCGGAAGCAGAGGCGGCAGCCUUAGGUGGCGCGAUAGGGACAACGUUCUCAACUAUGACACGCAAAACGCGUGCUCUGUUGAAUGGAGUUUAUUAUG | ≤ -4.2
17 | GGAUCUUCUCGAUCUAACAAAAAAGACAAAUCUGCCACAAAGCUUGCGAGCAUCUUCGGAUGCAGAGGCGGCAGCCUUCGGUAGCGCGAUAGCGCCAACGUUCUCAACUAUGACACGUAAAACGCGUGCUCCCUUGAAUGGAGUUUACCAUG | ≤ -4.2
18 | GGAUCUUCUCGAUCUAACAAAAAAGACAAAUCUGCCACAAAGCUUUAGAGCAUCUUCGGAUGCAGAGGCGGCAGCCGUCGGUGGCGUGUUAGAGCCAACGUUCUCAACUAUGACACGCAAAACUCGUGCUCCGUUGAAUGGAGUUUAUCAUG | ≤ -4.2
19 | GGAUCUUCUCGAUCUAACAAAAAAGACAAAUCUGCCACAAAGCUUGCGAGCAUCUUCGGAUGCAGAGGCGGCAGCCUUCGGUGGUGCGAUAGCGCCAACGUUCUCAACUAUGACACGUAAAACGCGUGCACCGUUGAAUGGAGUUUAUCAUG | -3.62

Row | Variant | polymerase ribozyme fitness (log ratio)
20 | GGAUCUUCUCGAUCUAACAAAAAAGACAAAUCUGCCACAAAGCUUGCGAGUAUUUUCGGAUGCAGAGGCGGUAGCCUUCGGUGUCGCGAUAGCGCCAACGUUCUCAACUAUGACACGCAAAACGCGUGCUCCGUUGAAUGGAGUUUAUCAUG | -3.18
21 | GGAUCUUCUCGAUCUAACAAAAAAGACAAAUCUGCCACAAAGCUUUAGAGCAUCUUCGGAUGCAGAGGCGGCAGCCUUCGGUUGCGCGAUAGCGCCAACGUUCUCAACUAUGACACGCUAAAAGCGUGCUCCGUUGAAUGGAGUCUAUCAUG | -3.34
22 | GGAUCUUCUCGAUCUAACAAAAAAGACAAAUCUGCCACAAAGCUUGCGAGCAUCUUCGGAUGCAGAGACGGCAGCCUUCGGUGGCGCGAUAGCGCGAAAGUUCUCAACUAUGACACGCAAAACGCGUGCUCCGUUGAAUGGAGUUUAUCAUG | ≤ -4.2
23 | GGAUCUUCUCGAUCUAACAAAAAAGACAAAUCUGCCACAAAGCUUGCGAGCAUCUUCGGAUGCAGAGGCGGCAGCCUUCGGUGGCGCGAUAACGCCAACGUUCUCAGCUAUGACACGCAAAACGCGUGCUCCGUUGAAUGGAGUUUAUCAUG | ≤ -4.2
24 | GGAUCUUCUCGAUCUAACAAAAAAGACAAAUCUGCCACAAAGCUUGCGAGUAUUUUCGGAUGCAGAGGCGGCCGCCUUCGGUGGCGCGAUAGCGCCAACGUUCUCAACUAUGACACGCAAAUCGCGUGCUCCGUUGAAUGGAGUUUAUCAUG | ≤ -4.2
25 | GGAUCUUCUCGAUCUAACAAAAAAGACAAAUCUGCCACAAAGCUUGCGAGCAUCUUCGGAUGCAGAGGCGGCAGCCUUCGGUGGGGCGAUAGCGCUAACGUUCUCAACUAUGACACGCAAAACGUGUGCUCCGUUGAAUGGAGUUUAUCAUG | ≤ -4.2
26 | GGAUCUUCUCGAUCUAACAAAAAAGACAAAUCUGCCACAAAGCUUGCGAGCAUCUUCGGAUGCAGAGGCGGCAGCCUUCGGUGGCGCGUUAGCGCCAACGUUCUCAACUAUGACACGCAAAACGCGUGCUCCGUUGAAUGGAGUUUAUCGUG | -1.84
27 | GGAUCUUCUCGAUCUAACAAAAAAGACAAAUCUGCCACAAAGCUUGCGAGCAUCUUCGGAUGCAGAGGCGGCUGCCUUCGGUGGCGCGAUAGCGCCAACGUUCUCAACUAUGACACGCAAAACCCGUGCUCCGUUGAAUGGAGUUUAUCAUG | -3.78
28 | GGAUCUUCUCGAUCUAACAAAAAAGACAAAUCUGCCACAAAGCUUGCGAGCAUCUUCGGAUGCAGAGGCGGCAGCCUUCGGUGGCGUGAUAGCGCCAACGUUCUAAACUAUGACACGCCAAACGCGUGCUCCGUUGAAUGGAGUUUAUCAUG | -1.51
29 | GGAUCUUCUCGAUCUAACAAAAAAGACAAAUCUGCCACAAAGCUUGCGAGCAUAUUCGGAUGCAGAGGCGGCAGCUUUCGGUGGGGCGAUAGCGCCAACGUUCUCUACUAUGACACGCAAAACGCGUGCUCCGUUGAAUGGACUUUAUCAUG | ≤ -4.2
30 | GGAUCUUCUCGAUCUAACAAAAAAGACAAAUCUGCCACAAAGCUUGCGAGCUUCUUCGGAUGCAGAGGCGGCAGCCUUCGGAGGCGCGAUAGCGCCAACGUUCUCAACUAUGACACGCAUAACGCGUGCUCCGUUGAAUGGAGUUUAUCAUG | -1.94
31 | GGAUCUUCUCGAUCUAACAAAAAAGACAAAUCUGCCACAAAGCUUGCGAGCAUCUUAGGAUGCAGAGGCGGCAGCCUUCGGUGGCGCGAUAGCGCCAACGUUCUCAACUAUGACACGCAAAACGCGUGCUCCGUUGAAUGGAGUUUAUCAUG | -0.176
32 | GGAUCUUCUCGAUCUAACAAAAAAGACAAAUCUGCCACAAAGCUUGCGAGCAUCUUCGGAUGCAGAGGCGGCAGCCUUCGGUGGCGCGAUAGCGCAAACGUUCUCAACUAUGACACGCAAAAGGCGUGCUCCGUUGAAUGGAGUUUAUCAGG | ≤ -4.2
33 | GGAUCUUCUCGAUCUAACAAAAAAGACAAAUCUGCCACAAAGCUUGCGAGCAUCUUCGGAUGCAGAGGCGGCAGCCUUCGGUGGCGCGAUAGCGCAAACGUUCUCAACUAUGACACGCAAAACGCGUGCUCCGUUGAAUGGAGUUUAUCAUG | -0.697
34 | GGAUCUUCUCGAUCUAACAAAAAAGACAAAUCUGCCACAAAGCUUUAGAGCAUCUUCGGAAGCAGAGGCGGCAGCCUUCGGUGGCGCGAUAUCGCAAACGUUCUCAACUAUGACACGCAAAACGCGUGCUCCGUUGGAUGGAGUUUAUCAUG | ≤ -4.2
35 | GGAUCUUCUCGAUCUAACAAAAAAGACAAAUCUGCCACAAAGCUUGCGAGCAUCUUCGGAUGCAGAGGCGGCAGCCUUCGGUGGCGCGAUAGCGCCAACGUUCUCAACUAUGACACGCAAAACUCGUGCUCCGUUGAAUGGAGUUUAUCAUG | -1.09
36 | GGAUCUUCUCGAUCUAACAAAAAAGACAAAUCUGCCACAAAGCUUGCGAGCAUCUUCGGAUGCAGAGGCGGCAGCCUUCGGUGGCGCGAUAGCGCCAACGUUCUCAUAUAUGACACGCAAAACGCGUGCUCCGUUGAAUGGAGUUUAUCAUG | ≤ -4.2
37 | GGAUCUUCUCGAUCUAACAAAAAAGACAAAUCUGCCACAAAGCUUGCGAGCAUCUUCGGAUGCAGAGGAGGCAGCCUUCGGUGGCGUGAUAGCGCCAACUUUCUCAACUAUGACACGCAAGACGCGUGCUCCGUUGAAUGGAUUUUAUCAUG | ≤ -4.2
38 | GGAUCUUCUCGAUCUAACAAAAAAGACAAAUCUGCCACAAAGCUUGCGAGCAUCUUCGGAUGAAGAGGCGGCAGCCUUCGGUAGCGCGAUAGCGCCAACGUUCUCAACUAUGACACGCAAAACGCGUGCUCCGUUGAAUGGAGUUUAUCAUG | -1.37

Source: the RNAGym collection of RNA variant scans (doi:10.1073/pnas.2313332121)
